This data set is described as follows: soluble on expression in E. coli; label from the status in PepcDB or PDB records.
As to “MSLKVLIKTDLVLGAPKTLRDVYIGIDEGQIKVISKEKPEDYDYAEYVIGGKNRVVAPGFVTTHSFLYLYPFRYRVFSGKANAFQLMSTLTPNDIYYFSLMGAYHLLKTGVTTVVTSGPNLDMIARAISEVGLRPVLAVGVDCPDSKEDWEREFTTLYNRWSSKNENRVILRLCSNEYSKEVFELSQQYDFPVLLERFVSLENISGNPINVIGLGGGARKDLDIIKQKGFHLASTPSYEVSQFPLSQYKPSISLDLSPTFDIRHEVSTSITRLILTPEEALNAMTIWGLLQLKYNDRGVLENGKVADLVIFEVKEPPTFPLDYESPYESIVFNLSTPETVLVSGEAILDGGVPLNIGIKHIEKAIERLEDIDKKVTEGHHHHHH”, the “soluble on expression in E. coli” value was “soluble”.

As for “MGSDKIHHHHHHMAYPNGKLSEEKVFKDPVHRYVHVRDKLIWDLIGTREFQRLRRIKQLGTTYLTFHGAEHSRFNHSLGVYEIVRRMVDDVFKGRPEWDDSERELCLAAALLHDLGHGPFSHSFEKVFHLDHEDFTRGIILGDTEVNQVLRKVSPGFPQDVAEVIAKTYKNKQVVSLISSQIDADRMDYLQRDAYYTGVSYGHFDMERILRVMRPREDQIVIKESGMHAVEDYIMSRYQMYWQVYFHPVTRSAEVILTKILHRAKQLHDEGYVFTHAPVHFYSIFEGKLTLEDYVKLDESIILYYFQAWEDEEDAILSDLCRRFINRQLFQYVEFNPNEEMSAYFELTSLFKEAGIDPSYYLVVDSSSDLPYDFYRPGEEEERLPIHLLTQNGQIKELSRQSAIVESISGKRRTDHKLYYPKDLICDGTKHPEAKMKIRQLLGLT”, the “soluble on expression in E. coli” value is listed as “not soluble”.

“MNIVCIDTCFSSVAITAQGNAGTFTSVFTPAKARHSAILIPAIETAVKQAGFSINETDVLVCPQGPGGFTGLRLAYSTAKAIQLQTNARFFCVSILEALCSKYGDKNQFLSVIDAKRDCFYVQAFENKKPISEAFDIRAEDALKLIDKNKKTIICGFGTEKFNEEAGASIESNNITLIEADKETLSKTLLDCFLTNKNCKKVEDHEGPVYIRKSDAEY”: the “soluble on expression in E. coli” value was “not soluble”.

Consider “MEPVRIGGPVGAGKTMLVEKLTRAMHRRFSIAVITNDIYTKEDAQFLIKHSVLPEDRIIGVETGGCPHTAIREDASMNFAAIDELKRRHPDVELILIESGGDNLAATFSPELVDFSIYVIDVAQGEKIPRKGGQGMIKSDLLVINKIDLAPYVGASLEVMERDAKAVRGAKPVIFTNLKEEIGLFDVVDWIEKQVLLAGLEE”, for which the “soluble on expression in E. coli” value is listed as “not soluble”.

With “MGSDKIHHHHHHMKSPEEVTKWVRQRYQRQRWAWLDGGGAWPLQVSLDLPTQKVALADPSAVRTWSSSWADWLAVHPADASRPLPELLTATVAWRNMGEQTLPGALAFSSPECVADYCGDGKVWRRIVSRRATMLARWPALHASGFGSNYTALGEFKDEDFERLLAVLEWLVANPKSGIYLRQLPVPNIDTKWIDLQRRGVVADLFSRIIKPQAALQAVQSFVEGEGAEIDATGQAYSIEKESSNFYDTCGLLRPPVKLRILILCPKLRTQVGGLRDIEATIEDWAQLQLKPRQLLVVENKDTCLAMPDVDGVVAVIKLGNAVALVTRIAWLVRVPVLYWGDIDTYGYSILVQARKKLHDVRSVLMDRSTVETHLDRLVEEGQQTKSIDRSLLTAAELDVYDALLAHDWGTSRRLEQERLEWPSALRTVLSALHQRESKSA”, the “soluble on expression in E. coli” value is reported as “not soluble”.

Consider “MTMSLEVFEKLEAKVQQAIDTITLLQMEIEELKEKNNSLSQEVQNAQHQREELERENNHLKEQQNGWQERLQALLGRMEEV”, for which the “soluble on expression in E. coli” value is “soluble”.

On to “MKTRKIPLRKSVVSNEVIDKRDLLRIVKNKEGQVFIDPTGKANGRGAYIKLDNAEALEAKKKKVFNRSFSMEVEESFYDELIAYVDHKVKRRELGLE”, for which the “soluble on expression in E. coli” value is reported as “soluble”.

Take “MRVDLNSDLGESFGRYKLGLDEEVMKYITSANVACGWHAGDPLVMRKTVRLAKENDVQVGAHPGYPDLMGFGRRYMKLTPEEARNYILYQVGALYAFAKAEGLELQHVKPHGALYNAMVKEEDLARAVIEGILDFDKDLILVTLSNSRVADIAEEMGLKVAHEVFADRAYNPDGTLVPRGRPGAVIEDKEEIAERVISMVKDGGIRAINGEWVDLKVDTICVHGDNPKAVEITSYIRKVLEEEGVKIVPMKEFIR”: the “soluble on expression in E. coli” value is recorded as “soluble”.

“MAHHHHHHMIDPVKRDLTNLFLEKREMAKEEIDPRKDWLKRILLNNNTNDLRMFLKASELKTKEGDYCMTCKSNVKQLLYLHTKKNYCHLCEEIFCAYCVKSIDFMKDEKEKYIKIRLCRNCFIYINELKYIINPNLSVDRKAIDLQNSFNDISNCYTNLCSNVPQLNGLVLLCENNKEFLDSFKSEIKQLEEKIQHDVDFLNIMKKKNNFLSDNTLILNKMGKNLLLYLKIIRNKIIPSSIEVLNKTKELLYKK”: the “soluble on expression in E. coli” value is reported as “not soluble”.

Consider “AHHHHHHGSDKVYLTWWQVDRAIFALAEKLREYKPDVIVGIARGGLIPAVRLSHILGDIPLKVIDVKFYKGIEERGEKPVITIPIHGDLKDKKVVIVDDVSDTGKTLEVVIEEVKKLGAKEVKVACLAMKPWTSVVPDYYVFRTEKWIVFPWEEFPVIERE”, for which the “soluble on expression in E. coli” value is listed as “not soluble”.

In the case of “MGSDKIHHHHHHMQPETSAQYQHRFSQAIRGGEAADGLPQDRLNVYIRLIRNNIHSFIDRCYTETRQYFDSKEWSRLKEGFVRDARAQTPYFQEIPGEFLQYCQSLPLSDGILALMDFEYTQLLAEVAQIPDIPDIHYSNDSKYTPSPAAFIRQYRYDVTHDLQEAETALLIWRNAEDDVMYQTLDGFDMMLLEIMGSSALSFDTLAQTLVEFMPKADNWKNILLGKWSGWIEQRIIIPSLSAISENMEGNSPSQNHLSA”, the “soluble on expression in E. coli” value was “not soluble”.

As to “HPWQRASVWAEILPSILFRTDFTNAQDEPDEMSSKLHRRSSFQPAFQVGVAYRVSDHMGIEAHAGYQLGEAVYHLMEETSTWSIIKKRATVPYRGFEFAVGLQFYPFR”, the “soluble on expression in E. coli” value was “not soluble”.

In the case of “SGNLLKVLTCTDLEQGPNFFLDFENAQPTESEKEIYNQVNVVLKDAEGILEDLQSYRGAGHEIREAIQHPADEKLQEKAWGAVVPLVGKLKKFYEFSQRLEAALRGLLGALTSTPYSPTQHLEREQALAKQFAEILHFTLRFDELKMTNPAIQNDFSYYRRTLSRMRINNVPAEGENEVNNELANRMSLFYAEATPMLKTLSDATTKFVSENKNLPIENTTDCLSTMASVCRVMLETPEYRSRFTNEETVSFCLRVMVGVIILYDHVHPVGAFAKTSKIDMKGCIKVLKDQPPNSVEGLLNALRYTTKHLNDETTSKQIKSMLQ”, the “soluble on expression in E. coli” value is on record as “soluble”.

For the sequence “MGSDKIHHHHHHMGIRILNDLMLDKSALLFGVSKYLEKGIITGNILIHKSLLAELEKESNDGLVSAEIALDEVKKLKDITERILVNFEIVGENSKKGEANELSREYCLEKGCIMVTADETQKKICDVMGIQYSFLQPLEQSLSFESFFDDETMSLHIKEDTVPRAKKGKPGNWKFVNLSNKPMLSVDVKRIANEIINGVRFIKGSFIEIERKGSLIIQLGNYRVVITRPPLSDGWEITITRPVVRKRLEDYGLDERLIKRLEERAEGIIIAGAPGMGKTTFAQALSEYYMRLGKIVKTIESPRDMHLPPEITQYSKNYAEIGELHDILLLSRPDYTVYDEMRNDEDFKLYIDLRLAGIGMVGVVHATSPIDAIHRFVNRVDIGTIPNILDTIIFINSGNVSKVYTLEITVKVPAGLKEADLARPVVEIKDLVTGNTEYEIYVFGEQTMIVPVNRGITLNNMEFKISKIVNNIIPKATVKYEDGEYVIVIPKEEIGKYNRKLVQRLKRLEKKNNIKIKIKLSD”, the “soluble on expression in E. coli” value is “not soluble”.

With “MGSDKIHHHHHHMNEFIASIKSATASLHTQLEQSEISNVIMSQLVTEKAYAEYLSRIQCMHEDIEKHTFPIIHTIIKDTAQRTKSTAIAADLDQLKYASAVNKTFLDAAHSPDLNFNLGLMYVTEGSVLGGQVILKNIKKQLGEDIASRFLNVYGQQTGHLWRSFLIQLSEYQSTLSEKEKMTIIDGAKYGFERVYSILM”, the “soluble on expression in E. coli” value was “not soluble”.

As for “MSKGFAFKPSALAAKADKLWSDSKTEYTATHSTINHVHLEKKSLGDIIPKSADAPVANEKEVEEAPQAFVFGSKISDRVVNKEGDSTKPGGSDEKTMTATELFQNAVKKDDDKNGAKNFRKEAEQEAERAKEAEKQHAGTSSVEITTGEENDTNIFQAPCKIWAFDKLKNAYSEKGVCNLRINKRVENGLTHHRIVARTSSGTLRVIINSKIFSDMLLERVDKRIRISAMGPEISGVQIFLLKIGFTKTETIPDSDIFYNIMSDLLKLEKGENSRKRKADCDLNASTVKIKDGKEEEEGDQDQVDEGFVIVNKPTEDEVKEEKPAVTAAEESASSSTPSE”, the “soluble on expression in E. coli” value is listed as “not soluble”.

As for “MGSDKIHHHHHHMTIIAGTVVKGKQLGRKLGFPTANVDAKIHGLRNGVYGVLATVNHQFHLGVMNIGVKPTVGSNLEKTLEIFLFDFHRDIYGEKIECSILFKIREERRFDSLESLTKQIKKDISCVAKRFELIGIMAPNKKESLLSHQELNLPDLCFYKKCNNLYGVNRGVYNVIDNWFFEYGITQVAYRRIYILSFLSFLKEDNPKVSSKYIRFGAGGLADKLNRFISSYVEESEENILG”, the “soluble on expression in E. coli” value is listed as “not soluble”.

On to “MKTVILIGALGKMGQAALTGLSKHKVITAGRSGNVDHLVDITNENSIRALYEKVGHFDAVVNTVGFCEYATFAEMTEAQWMTTVMSKMMGQINLVRIGQEYIADKGSFTLISGILNVKPIPCAIADATTSGAIDTFVKCVAYEMQRGTRINVVNPTVLTEAWDVYGDMMPGFEPVPSTLVGKAFERSVDGFINGEVLFVDALEHHHHHH”, for which the “soluble on expression in E. coli” value is given as “soluble”.

As to “MAHHHHHHMGHKNSSNISSAPVPPPFYVLPGVPVPSLKPSNLDFSATSGKPILCAGWIAPHGNRSWSRRNVVYSSEIEIPVPQPCQVRVKIYAAGVNPADAHRTAVLPSSPEVGTSGKSRRASRHPRPPFKFPYVVGIEGAGVVESVGWAAASSGERDGSAGALTSANARDIRVGDRVAFLADLMQESGGTFCQYAVVDSDVLWKLPEVVCAPPPSTGGLVPGRLIDFVEAASLPAAAATAYIALFDKLRIETQRAIFISGASGGVGSAAVQLAHYFGLYVIASCSTPNVRYVQSLGADYVVDYTRADVVEEILTYTDNYGVDYLLECAGAFMAEAHSETVRFGGALCVLTGLLSPRSDIVFRRQLSVHYVCLGMQHQDPLARTQLQPLGELVMQLYIQGAFSVNAEQVPFVQAADALDLVASGHGRGKIVLTNFHTNEEKEERLRRRHVQLYEKAQHQYQVEETQKAAGAAAATAASEAASREAG”, the “soluble on expression in E. coli” value is “not soluble”.

Regarding “MGLCMMRTLQSAPSSPLAMPEIQFCLLPDACRPLLGKFYREHQSSMRAASKGQAWVAKQEEIIGALCLTPVADGHWLTGLFVAPPLRGNAVAQRLIDAALLPLSGPVWLFCHPDLQGFYRLAGFETAQRLPQALGERLMRYSRSKPLVALHREA”, the “soluble on expression in E. coli” value is “not soluble”.

As for “MKIMEINVEHILDCLDQYGKGELTEEQLVKALTYDEKMFLIMHQGLLGENSDSEDDFDVQDWLEEEESFFMVVEVNENLCRQAESVLEEIGVEMPDAIEGFLNQLVEKKQFPVVINS”, the “soluble on expression in E. coli” value is “not soluble”.

As to “MAHHHHHHMYPKNELQVLNILYIIIYSFFVDEEIDNIKDETQEIQAYNYTSLMIPSDVSSENNSDTKHFSVVTISFFILYSENIKQVLNLQESIDIQKIKEKKEKKKKQEVFKDIMCSDIKYEKKIKRKKKKIFENKRSSKKNKNNIRDFINLEKDIIITKTLMYNKKKKLDDIYKYTSKKEKTINNLNKNMIKEAAHMQELLIENFKKTEDLIKVRRGGGKIKKKEKTQRIYIHIYIHIYIHI”, the “soluble on expression in E. coli” value is on record as “not soluble”.

Turning to “MMCTAKKCGIRFQPPAIILIYESEIKGKIRQRIMPVRNFSKFSDCTRAAEQLKNNPRHKSYLEQVSLRQLEKLFSFLRGYLSGQSLAETMEQIQRETTIDPEEDLNKLDDKELAKRKSIMDELFEKNQKKKDDPNFVYDIEVEFPQDDQLQSCGWDTESADEF”, the “soluble on expression in E. coli” value is listed as “soluble”.

For the origin of these results see the DeepSol protein solubility set.
